Experimental data reported in patent US9029508 (dated 2015).

What follows are binders tested against DLL4 (human, UniProt Q9NR61) (assay: ELISA).
DLL4, sequence (Q9NR61 27-524): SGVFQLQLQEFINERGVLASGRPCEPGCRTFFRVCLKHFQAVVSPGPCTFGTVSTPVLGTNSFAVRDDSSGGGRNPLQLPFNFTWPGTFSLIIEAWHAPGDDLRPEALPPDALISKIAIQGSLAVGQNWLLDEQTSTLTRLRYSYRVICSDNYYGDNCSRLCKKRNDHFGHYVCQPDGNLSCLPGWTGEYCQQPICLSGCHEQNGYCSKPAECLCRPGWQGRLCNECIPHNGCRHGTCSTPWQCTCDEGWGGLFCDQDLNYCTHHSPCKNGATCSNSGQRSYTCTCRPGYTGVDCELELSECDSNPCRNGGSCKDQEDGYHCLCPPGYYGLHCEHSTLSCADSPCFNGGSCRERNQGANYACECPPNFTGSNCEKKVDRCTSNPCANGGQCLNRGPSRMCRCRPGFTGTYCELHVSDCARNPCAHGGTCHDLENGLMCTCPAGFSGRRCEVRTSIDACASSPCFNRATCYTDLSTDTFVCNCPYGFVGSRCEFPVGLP

Row | Binder | EC50
1 | DVD514 DLL4 arm (antibody, V domains shown, DVD-Ig inner) VH: EVQLQQSGPELEKPGASVKISCKASGYSFTGYNMNWVKQSNGKSLEWIGNIDPYFGGTNYNQKFKGKATLTVDKSSSTAYMQLKSLTSEDSAVYYCARNYDYDGGCFDYWGQGTTLTVSS VL: QAVVTQESALTTSPGETVTLTCRSSTGAVTTSNYANWVQEKPDHLFTGLIGGTNNRAPGVPARFSGSLIGDKAALTITGAQTEDEAIYFCALWYSNHWVFGGGTKLTVLG | 21.1 nM
2 | DVD520 DLL4 arm (antibody, V domains shown, DVD-Ig inner) VH: EVQLQQSGPELEKPGASVKISCKASGYSFTGYNMNWVKQSNGKSLEWIGNIDPYFGGTNYNQKFKGKATLTVDKSSSTAYMQLKSLTSEDSAVYYCARNYDYDGGCFDYWGQGTTLTVSS VL: QAVVTQESALTTSPGETVTLTCRSSTGAVTTSNYANWVQEKPDHLFTGLIGGTNNRAPGVPARFSGSLIGDKAALTITGAQTEDEAIYFCALWYSNHWVFGGGTKLTVLG | 17.3 nM
3 | DVD522 DLL4 arm (antibody, V domains shown, DVD-Ig inner) VH: EVQLQQSGPELEKPGASVKISCKASGYSFTGYNMNWVKQSNGKSLEWIGNIDPYFGGTNYNQKFKGKATLTVDKSSSTAYMQLKSLTSEDSAVYYCARNYDYDGGCFDYWGQGTTLTVSS VL: QAVVTQESALTTSPGETVTLTCRSSTGAVTTSNYANWVQEKPDHLFTGLIGGTNNRAPGVPARFSGSLIGDKAALTITGAQTEDEAIYFCALWYSNHWVFGGGTKLTVLG | 0.48 nM
4 | DVD534 DLL4 arm (antibody, V domains shown, DVD-Ig inner) VH: EVQLQQSGPELEKPGASVKISCKASGYSFTGYNMNWVKQSNGKSLEWIGNIDPYFGGTNYNQKFKGKATLTVDKSSSTAYMQLKSLTSEDSAVYYCARNYDYDGGCFDYWGQGTTLTVSS VL: QAVVTQESALTTSPGETVTLTCRSSTGAVTTSNYANWVQEKPDHLFTGLIGGTNNRAPGVPARFSGSLIGDKAALTITGAQTEDEAIYFCALWYSNHWVFGGGTKLTVLG | 0.47 nM
5 | DVD527 DLL4 arm (antibody, V domains shown, DVD-Ig outer) VH: EVQLQQSGPELEKPGASVKISCKASGYSFTGYNMNWVKQSNGKSLEWIGNIDPYFGGTNYNQKFKGKATLTVDKSSSTAYMQLKSLTSEDSAVYYCARNYDYDGGCFDYWGQGTTLTVSS VL: QAVVTQESALTTSPGETVTLTCRSSTGAVTTSNYANWVQEKPDHLFTGLIGGTNNRAPGVPARFSGSLIGDKAALTITGAQTEDEAIYFCALWYSNHWVFGGGTKLTVLG | 0.2 nM
6 | DVD513 DLL4 arm (antibody, V domains shown, DVD-Ig outer) VH: EVQLQQSGPELEKPGASVKISCKASGYSFTGYNMNWVKQSNGKSLEWIGNIDPYFGGTNYNQKFKGKATLTVDKSSSTAYMQLKSLTSEDSAVYYCARNYDYDGGCFDYWGQGTTLTVSS VL: QAVVTQESALTTSPGETVTLTCRSSTGAVTTSNYANWVQEKPDHLFTGLIGGTNNRAPGVPARFSGSLIGDKAALTITGAQTEDEAIYFCALWYSNHWVFGGGTKLTVLG | 0.66 nM
7 | DVD473 DLL4 arm (antibody, DVD-Ig outer) chain 1: EVQLVESGGGLVQPGGSLRLSCAASGFTFTDNWISWVRQAPGKGLEWVGYISPNSGFTYYADSVKGRFTISADTSKNTAYLQMNSLRAEDTAVYYCARDNFGGYFDYWGQGTLVTVSS chain 2: DIQMTQSPSSLSASVGDRVTITCRASQDVSTAVAWYQQKPGKAPKLLIYSASFLYSGVPSRFSGSGSGTDFTLTISSLQPEDFATTYYCQQSYTGTVTFGQGTKVEIKR | 1.8 nM
8 | DVD475 DLL4 arm (antibody, DVD-Ig outer) chain 1: EVQLVESGGGLVQPGGSLRLSCAASGFTFTDNWISWVRQAPGKGLEWVGYISPNSGFTYYADSVKGRFTISADTSKNTAYLQMNSLRAEDTAVYYCARDNFGGYFDYWGQGTLVTVSS chain 2: DIQMTQSPSSLSASVGDRVTITCRASQDVSTAVAWYQQKPGKAPKLLIYSASFLYSGVPSRFSGSGSGTDFTLTISSLQPEDFATTYYCQQSYTGTVTFGQGTKVEIKR | 0.23 nM
9 | DVD472 DLL4 arm (antibody, DVD-Ig inner) chain 1: EVQLVESGGGLVQPGGSLRLSCAASGFTFTDNWISWVRQAPGKGLEWVGYISPNSGFTYYADSVKGRFTISADTSKNTAYLQMNSLRAEDTAVYYCARDNFGGYFDYWGQGTLVTVSS chain 2: DIQMTQSPSSLSASVGDRVTITCRASQDVSTAVAWYQQKPGKAPKLLIYSASFLYSGVPSRFSGSGSGTDFTLTISSLQPEDFATTYYCQQSYTGTVTFGQGTKVEIKR | 2.78 nM
10 | DVD474 DLL4 arm (antibody, DVD-Ig inner) chain 1: EVQLVESGGGLVQPGGSLRLSCAASGFTFTDNWISWVRQAPGKGLEWVGYISPNSGFTYYADSVKGRFTISADTSKNTAYLQMNSLRAEDTAVYYCARDNFGGYFDYWGQGTLVTVSS chain 2: DIQMTQSPSSLSASVGDRVTITCRASQDVSTAVAWYQQKPGKAPKLLIYSASFLYSGVPSRFSGSGSGTDFTLTISSLQPEDFATTYYCQQSYTGTVTFGQGTKVEIKR | 0.57 nM
11 | DVD490 DLL4 arm (antibody, V domains shown, DVD-Ig inner) VH: EVQLQQSGPELVKPGASVKMSCKASGYTFTSYVINWVKQKPGQGLEWIGLINPYNDGTKYNEKFKVKATLTSDKSSSTAYMELSSLTSEDSAVYYCASYYYGSRYYFDYWGQGTTLTVSS VL: DIQMTQSSSYLSVSLGGRVTITCKASDHINNWLAWYQQKPGNAPRLLISGATSLETGVPSRFSGSGSGKDYTLSITSLQTEDVATYYCQQYWSIPLTFGAGTKLELKR | 9.27 nM
12 | DVD507 DLL4 arm (antibody, V domains shown, DVD-Ig outer) VH: EVQLQQSGPELVKPGASVKMSCKASGYTFTSYVINWVKQKPGQGLEWIGLINPYNDGTKYNEKFKVKATLTSDKSSSTAYMELSSLTSEDSAVYYCASYYYGSRYYFDYWGQGTTLTVSS VL: DIQMTQSSSYLSVSLGGRVTITCKASDHINNWLAWYQQKPGNAPRLLISGATSLETGVPSRFSGSGSGKDYTLSITSLQTEDVATYYCQQYWSIPLTFGAGTKLELKR | 0.71 nM
13 | DVD508 DLL4 arm (antibody, V domains shown, DVD-Ig inner) VH: EVQLQQSGPELVKPGASVKMSCKASGYTFTSYVINWVKQKPGQGLEWIGLINPYNDGTKYNEKFKVKATLTSDKSSSTAYMELSSLTSEDSAVYYCASYYYGSRYYFDYWGQGTTLTVSS VL: DIQMTQSSSYLSVSLGGRVTITCKASDHINNWLAWYQQKPGNAPRLLISGATSLETGVPSRFSGSGSGKDYTLSITSLQTEDVATYYCQQYWSIPLTFGAGTKLELKR | 0.61 nM
14 | DVD495 DLL4 arm (antibody, V domains shown, DVD-Ig outer) VH: EVQLQQSGPELVKPGASVKMSCKASGYTFTSYVINWVKQKPGQGLEWIGLINPYNDGTKYNEKFKVKATLTSDKSSSTAYMELSSLTSEDSAVYYCASYYYGSRYYFDYWGQGTTLTVSS VL: DIQMTQSSSYLSVSLGGRVTITCKASDHINNWLAWYQQKPGNAPRLLISGATSLETGVPSRFSGSGSGKDYTLSITSLQTEDVATYYCQQYWSIPLTFGAGTKLELKR | 0.33 nM
15 | DVD451 DLL4 arm (antibody, V domains shown, DVD-Ig outer) VH: QVQLVQSGAEVKKPGASVKISCKASGYSFTAYYIHWVKQAPGQGLEWIGYISSYNGATNYNQKFKGRVTFTTDTSTSTAYMELRSLRSDDTAVYYCARDYDYDVGMDYWGQGTLVTVSS VL: DIVMTQSPDSLAVSLGERATISCRASESVDNYGISFMKWFQQKPGQPPKLLIYAASNQGSGVPDRFSGSGSGTDFTLTISSLQAEDVAVYYCQQSKEVPWTFGGGTKVEIKR | 0.4 nM
16 | DVD463 DLL4 arm (antibody, V domains shown, DVD-Ig outer) VH: QVQLVQSGAEVKKPGASVKISCKASGYSFTAYYIHWVKQAPGQGLEWIGYISSYNGATNYNQKFKGRVTFTTDTSTSTAYMELRSLRSDDTAVYYCARDYDYDVGMDYWGQGTLVTVSS VL: DIVMTQSPDSLAVSLGERATISCRASESVDNYGISFMKWFQQKPGQPPKLLIYAASNQGSGVPDRFSGSGSGTDFTLTISSLQAEDVAVYYCQQSKEVPWTFGGGTKVEIKR | 0.5 nM
17 | DVD453 DLL4 arm (antibody, V domains shown, DVD-Ig outer) VH: QVQLVQSGAEVKKPGASVKISCKASGYSFTAYYIHWVKQAPGQGLEWIGYISSYNGATNYNQKFKGRVTFTTDTSTSTAYMELRSLRSDDTAVYYCARDYDYDVGMDYWGQGTLVTVSS VL: DIVMTQSPDSLAVSLGERATISCRASESVDNYGISFMKWFQQKPGQPPKLLIYAASNQGSGVPDRFSGSGSGTDFTLTISSLQAEDVAVYYCQQSKEVPWTFGGGTKVEIKR | 0.09 nM
18 | DVD459 DLL4 arm (antibody, V domains shown, DVD-Ig outer) VH: QVQLVQSGAEVKKPGASVKISCKASGYSFTAYYIHWVKQAPGQGLEWIGYISSYNGATNYNQKFKGRVTFTTDTSTSTAYMELRSLRSDDTAVYYCARDYDYDVGMDYWGQGTLVTVSS VL: DIVMTQSPDSLAVSLGERATISCRASESVDNYGISFMKWFQQKPGQPPKLLIYAASNQGSGVPDRFSGSGSGTDFTLTISSLQAEDVAVYYCQQSKEVPWTFGGGTKVEIKR | 0.26 nM
19 | DVD457 DLL4 arm (antibody, V domains shown, DVD-Ig outer) VH: QVQLVQSGAEVKKPGASVKISCKASGYSFTAYYIHWVKQAPGQGLEWIGYISSYNGATNYNQKFKGRVTFTTDTSTSTAYMELRSLRSDDTAVYYCARDYDYDVGMDYWGQGTLVTVSS VL: DIVMTQSPDSLAVSLGERATISCRASESVDNYGISFMKWFQQKPGQPPKLLIYAASNQGSGVPDRFSGSGSGTDFTLTISSLQAEDVAVYYCQQSKEVPWTFGGGTKVEIKR | 0.13 nM
20 | DVD444 DLL4 arm (antibody, V domains shown, DVD-Ig inner) VH: QVQLVQSGAEVKKPGASVKISCKASGYSFTAYYIHWVKQAPGQGLEWIGYISSYNGATNYNQKFKGRVTFTTDTSTSTAYMELRSLRSDDTAVYYCARDYDYDVGMDYWGQGTLVTVSS VL: DIVMTQSPDSLAVSLGERATISCRASESVDNYGISFMKWFQQKPGQPPKLLIYAASNQGSGVPDRFSGSGSGTDFTLTISSLQAEDVAVYYCQQSKEVPWTFGGGTKVEIKR | 30.5 nM
21 | DVD446 DLL4 arm (antibody, V domains shown, DVD-Ig inner) VH: QVQLVQSGAEVKKPGASVKISCKASGYSFTAYYIHWVKQAPGQGLEWIGYISSYNGATNYNQKFKGRVTFTTDTSTSTAYMELRSLRSDDTAVYYCARDYDYDVGMDYWGQGTLVTVSS VL: DIVMTQSPDSLAVSLGERATISCRASESVDNYGISFMKWFQQKPGQPPKLLIYAASNQGSGVPDRFSGSGSGTDFTLTISSLQAEDVAVYYCQQSKEVPWTFGGGTKVEIKR | 13.9 nM
22 | DVD455 DLL4 arm (antibody, V domains shown, DVD-Ig outer) VH: QVQLVQSGAEVKKPGASVKISCKASGYSFTAYYIHWVKQAPGQGLEWIGYISSYNGATNYNQKFKGRVTFTTDTSTSTAYMELRSLRSDDTAVYYCARDYDYDVGMDYWGQGTLVTVSS VL: DIVMTQSPDSLAVSLGERATISCRASESVDNYGISFMKWFQQKPGQPPKLLIYAASNQGSGVPDRFSGSGSGTDFTLTISSLQAEDVAVYYCQQSKEVPWTFGGGTKVEIKR | 0.24 nM
